Test results: the supplement of paper PMC11246515
± gives the standard deviation of the averaged measurements.

Assay: total protein half-life in vivo (active degradation + dilution); higher = more stable protein
[1] = E. coli NCM3722 delta-clpP delta-lon delta-hslV, growth: N-lim chemostat, doubling time 6 h
[2] = E. coli NCM3722 delta-clpP, growth: N-lim chemostat, doubling time 6 h
[3] = E. coli NCM3722 delta-hslV, growth: N-lim chemostat, doubling time 6 h
[4] = E. coli NCM3722 delta-lon, growth: N-lim chemostat, doubling time 6 h
[5] = E. coli NCM3722 delta-smpB, growth: N-lim chemostat, doubling time 6 h
[6] = wild type E. coli NCM3722, growth: C-lim chemostat, doubling time 3 h
[7] = wild type E. coli NCM3722, growth: C-lim chemostat, doubling time 6 h
[8] = wild type E. coli NCM3722, growth: C-lim chemostat, doubling time 12 h
[9] = wild type E. coli NCM3722, growth: N-lim chemostat, doubling time 6 h
[10] = wild type E. coli NCM3722, growth: N-lim chemostat, doubling time 12 h
[11] = wild type E. coli NCM3722, growth: P-lim chemostat, doubling time 6 h
[12] = wild type E. coli NCM3722, growth: P-lim chemostat, doubling time 12 h

Row | Sequence | total protein half-life in vivo [1] | total protein half-life in vivo [2] | total protein half-life in vivo [3] | total protein half-life in vivo [4] | total protein half-life in vivo [5] | total protein half-life in vivo [6] | total protein half-life in vivo [7] | total protein half-life in vivo [8] | total protein half-life in vivo [9] | total protein half-life in vivo [10] | total protein half-life in vivo [11] | total protein half-life in vivo [12]
1 | MNNEPLRPDPDRLLEQTAAPHRGKLKVFFGACAGVGKTWAMLAEAQRLRAQGLDIVVGVVETHGRKDTAAMLEGLAVLPLKRQAYRGRHISEFDLDAALARRPALILMDELAHSNAPGSRHPKRWQDIEELLEAGIDVFTTVNVQHLESLNDVVSGVTGIQVRETVPDPFFDAADDVVLVDLPPDDLRQRLKEGKVYIAGQAERAIEHFFRKGNLIALRELALRRTADRVDEQMRAWRGHPGEEKVWHTRDAILLCIGHNTGSEKLVRAAARLASRLGSVWHAVYVETPALHRLPEKKRRAILSALRLAQELGAETATLSDPAEEKAVVRYAREHNLGKIILGRPASRRWWRRETFADRLARIAPDLDQVLVALDEPPARTINNAPDNRSFKDKWRVQIQGCVVAAALCAVITLIAMQWLMAFDAANLVMLYLLGVVVVALFYGRWPSVVATVINVVSFDLFFIAPRGTLAVSDVQYLLTFAVMLTVGLVIGNLTAGVRYQARVARYREQRTRHLYEMSKALAVGRSPQDIAATSEQFIASTFHARSQVLLPDDNGKLQPLTHPQGMTPWDDAIAQWSFDKGLPAGAGTDTLPGVPYQILPLKSGEKTYGLVVVEPGNLRQLMIPEQQRLLETFTLLVANALERLTLTASEEQARMASEREQIRNALLAALSHDLRTPLTVLFGQAEILTLDLASEGSPHARQASEIRQHVLNTTRLVNNLLDMARIQSGGFNLKKEWLTLEEVVGSALQMLEPGLSSPINLSLPEPLTLIHVDGPLFERVLINLLENAVKYAGAQAEIGIDAHVEGENLQLDVWDNGPGLPPGQEQTIFDKFARGNKESAVPGVGLGLAICRAIVDVHGGTITAFNRPEGGACFRVTLPQQTAPELEEFHEDM | 6.66 ± 0.19 h | 6.31 ± 0.4 h | 6.32 ± 0.48 h | 5.21 ± 0.13 h | 5.88 ± 0.37 h | 3.44 ± 0.035 h | 6 ± 0.74 h | 12.1 ± 1 h | 5.56 ± 0.21 h | 10.7 ± 0.66 h | 6.348 ± 0.059 h | 11.6 ± 0.51 h
2 | MISTVALFWALCVVCIVNMARYFSSLRALLVVLRNCDPLLYQYVDGGGFFTSHGQPNKQVRLVWYIYAQRYRDHHDDEFIRRCERVRRQFILTSALCGLVVVSLIALMIWH [P0A8S5] | 0.94 h | 0.778 h |  |  |  | 0.797 h | > 8 h |  |  |  |  | 
3 | MKVSVPGMPVTLLNMSKNDIYKMVSGDKMDVKMNIFQRLWETLRHLFWSDKQTEAYKLLFNFVNNQTGNINASEYFTGAINENEREKFINSLELFNKLKTCAKNPDELVAKGNMRWVAQTFGDIELSVTFFIEKNKICTQTLQLHKGQGNLGVDLRKAYLPGVDMRDCYLGKKTMKGSNDILYERPGWNANLGVLPRTVLPRTVLTRTVLTWTVLP | 4.07 h |  |  |  |  |  |  |  |  |  |  | 
4 | MSESLRIIFAGTPDFAARHLDALLSSGHNVVGVFTQPDRPAGRGKKLMPSPVKVLAEEKGLPVFQPVSLRPQENQQLVAELQADVMVVVAYGLILPKAVLEMPRLGCINVHGSLLPRWRGAAPIQRSLWAGDAETGVTIMQMDVGLDTGDMLYKLSCPITAEDTSGTLYDKLAELGPQGLITTLKQLADGTAKPEVQDETLVTYAEKLSKEEARIDWSLSAAQLERCIRAFNPWPMSWLEIEGQPVKVWKASVIDTATNAAPGTILEANKQGIQVATGDGILNLLSLQPAGKKAMSAQDLLNSRREWFVPGNRLV | 5.19 ± 0.35 h | 4.68 ± 0.25 h | 5.38 ± 1 h | 6.55 ± 0.13 h | 4.49 ± 0.29 h | 3.118 ± 0.012 h | 5.91 ± 0.49 h | 8.28 ± 1.2 h | 4.84 ± 0.38 h | 7.62 ± 0.9 h | 5.62 ± 0.28 h | 10.1 ± 0.96 h
5 | MSSVDILVPDLPESVADATVATWHKKPGDAVVRDEVLVEIETDKVVLEVPASADGILDAVLEDEGTTVTSRQILGRLREGNSAGKETSAKSEEKASTPAQRQQASLEEQNNDALSPAIRRLLAEHNLDASAIKGTGVGGRLTREDVEKHLAKAPAKESAPAAAAPAAQPALAARSEKRVPMTRLRKRVAERLLEAKNSTAMLTTFNEVNMKPIMDLRKQYGEAFEKRHGIRLGFMSFYVKAVVEALKRYPEVNASIDGDDVVYHNYFDVSMAVSTPRGLVTPVLRDVDTLGMADIEKKIKELAVKGRDGKLTVEDLTGGNFTITNGGVFGSLMSTPIINPPQSAILGMHAIKDRPMAVNGQVEILPMMYLALSYDHRLIDGRESVGFLVTIKELLEDPTRLLLDV [P0AFG6] |  | 6.24 ± 0.17 h | 5.462 ± 0.018 h | 5.45 ± 0.14 h | 4.93 ± 0.068 h | 2.97 ± 0.23 h | 5.7 ± 0.27 h | 11.3 ± 0.7 h | 5.17 ± 0.35 h | 11 ± 2.5 h | 5.72 ± 0.087 h | 12 ± 1.1 h
6 | MIRISDAAQAHFAKLLANQEEGTQIRVFVINPGTPNAECGVSYCPPDAVEATDTALKFDLLTAYVDELSAPYLEDAEIDFVTDQLGSQLTLKAPNAKMRKVADDAPLMERVEYMLQSQINPQLAGHGGRVSLMEITEDGYAILQFGGGCNGCSMVDVTLKEGIEKQLLNEFPELKGVRDLTEHQRGEHSYY | 4.529 ± 0.0069 h | 3.82 ± 0.32 h | 2.533 ± 0.019 h | 2.97 ± 0.2 h | 2.54 ± 0.25 h | 2.32 ± 0.16 h | 3.4 ± 0.13 h | 5.07 ± 0.12 h | 2.55 ± 0.36 h | 3.63 ± 0.19 h | 3.01 ± 0.56 h | 6.09 ± 0.23 h
7 | MSRVNPLSSLSLLAVLVLAGCSSQAPQPLKKGEKAIDVASVVRQKMPASVKDRDAWAKDLATTFESQGLAPTLENVCSVLAVAQQESNYQADPAVPGLSKIAWQEIDRRAERMHIPAFLVHTALKIKSPNGKSYSERLDSVRTEKQLSAIFDDLINMVPMGQTLFGSLNPVRTGGPMQVSIAFAEQHTKGYPWKMDGTVRQEVFSRRGGLWFGTYHLLNYPASYSAPIYRFADFNAGWYASRNAAFQNAVSKASGVKLALDGDLIRYDSKEPGKTELATRKLAAKLGMSDSEIRRQLEKGDSFSFEETALYKKVYQLAETKTGKSLPREMLPGIQLESPKITRNLTTAWFAKRVDERRARCMKQ | 6.06 ± 0.21 h |  |  |  | 5.8 ± 0.24 h | 3.28 ± 0.2 h | 6.11 ± 0.086 h | 11.2 ± 0.54 h | 6.93 ± 0.84 h | 12.9 ± 0.39 h | 6.11 ± 0.4 h | 12.4 ± 0.53 h
8 | MCIGVPGQVLAVGEDIHQLAQVEVCGIKRDVNIALICEGNPADLLGQWVLVHVGFAMSIIDEDEAKATLDALRQMDYDITSA [P0AAM7] | 4.75 ± 0.12 h |  |  |  |  |  | 2.77 h |  |  |  |  | 2.51 h
9 | MSRPRRRGRDINGVLLLDKPQGMSSNDALQKVKRIYNANRAGHTGALDPLATGMLPICLGEATKFSQYLLDSDKRYRVIARLGQRTDTSDADGQIVEERPVTFSAEQLAAALDTFRGDIEQIPSMYSALKYQGKKLYEYARQGIEVPREARPITVYELLFIRHEGNELELEIHCSKGTYIRTIIDDLGEKLGCGAHVIYLRRLAVSKYPVERMVTLEHLRELVEQAEQQDIPAAELLDPLLMPMDSPASDYPVVNLPLTSSVYFKNGNPVRTSGAPLEGLVRVTEGENGKFIGMGEIDDEGRVAPRRLVVEYPA | 5.81 ± 0.72 h | 4.93 ± 0.41 h | 4.51 ± 0.27 h | 4.83 ± 0.34 h | 4.29 ± 0.17 h | 3.06 ± 0.59 h | 5.2 ± 0.55 h | 9.72 ± 0.41 h | 4.89 ± 0.18 h | 7.6476 ± 0.0051 h | 5.59 ± 0.17 h | 12.2 ± 2.5 h
